The target in the experiment is T1, recombinant mouse HEXB (beta-subunit of beta-hexosaminidase) (mouse, UniProt P20060 32-536).
T1 sequence (looked up): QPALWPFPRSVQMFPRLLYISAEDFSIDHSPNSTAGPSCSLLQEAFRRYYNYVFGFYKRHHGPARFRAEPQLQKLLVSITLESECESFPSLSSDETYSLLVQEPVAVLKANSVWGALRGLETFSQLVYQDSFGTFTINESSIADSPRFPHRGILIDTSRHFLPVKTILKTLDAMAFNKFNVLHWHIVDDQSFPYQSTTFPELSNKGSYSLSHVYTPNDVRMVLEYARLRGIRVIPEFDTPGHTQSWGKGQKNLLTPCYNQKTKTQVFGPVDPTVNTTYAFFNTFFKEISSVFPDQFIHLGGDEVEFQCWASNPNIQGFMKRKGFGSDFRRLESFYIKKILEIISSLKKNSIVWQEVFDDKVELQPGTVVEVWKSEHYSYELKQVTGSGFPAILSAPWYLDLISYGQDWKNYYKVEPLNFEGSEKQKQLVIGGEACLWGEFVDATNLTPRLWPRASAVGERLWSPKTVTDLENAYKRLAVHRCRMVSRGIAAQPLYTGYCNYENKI
In words: binding to a coated plate, bound protein read by HexA enzymatic activity.

B1: mouse-Transferrin-G-CSF-HEXA (mTr-G-CSF-HEXA) (other)
chain: HAIYPRHGSVPLVTVSALPPSLPLPRSFLLKSLEQVRKIQASGSVLLEQLCATYKLCHPEELVLLGHSLGIPKASLSGCSSQALQQTQCLSQLHSGLCLYQGLLQALSGISPALAPTLDLLQLDVANFATTIWQQMENLGVAPTVQPTQSAMPAFTSAFQRRAGGVLAISYLQGFLETARLALHHLAGSGSDRVYIHPFHLGSGSGGSGGSGGSGSGGSGSGGSGGSGLWPWPQYIQTYHRRYTLYPNNFQFRYHVSSAAQAGCVVLDEAFRRYRNLLFGSGSWPRPSFSNKQQTLGKNILVVSVVTAECNEFPNLESVENYTLTINDDQCLLASETVWGALRGLETFSQLVWKSAEGTFFINKTKIKDFPRFPHRGVLLDTSRHYLPLSSILDTLDVMAYNKFNVFHWHLVDDSSFPYESFTFPELTRKGSFNPVTHIYTAQDVKEVIEYARLRGIRVLAEFDTPGHTLSWGPGAPGLLTPCYSGSHLSGTFGPVNPSLNSTYDFMSTLFLEISSVFPDFYLHLGGDEVDFTCWKSNPNIQAFMKKKGFTDFKQLESFYIQTLLDIVSDYDKGYVVWQEVFDNKVKVRPDTIIQVWREEMPVEYMLEMQDITRAGFRALLSAPWYLNRVKYGPDWKDMYKVEPLAFHGTPEQKALVIGGEACMWGEYVDSTNLVPRLWPRAGAVAERLWSSNLTTNIDFAFKRLSHFRCELVRRGIQAQPISVGYCEQEFEQT
In the case of B1, the Kd (in general, the constant that tells how readily two partners part at equilibrium) is 166 nM.

Source of the values: paper PMC11357852 (Molecular Therapy. Methods & Clinical Development, 2024).
